From the supplement of paper PMC9112550, “Optimization of the antimicrobial peptide Bac7 by deep mutational scanning” (BMC Biology, 2022)

Test system: Escherichia coli TOP10
Experiment: shrunken log2 fold change of peptide-encoding DNA abundance (4.5 h post-induction vs induction); higher = less antimicrobial activity (less host growth inhibition)
Conditions: time post-induction: 4.5 h; library: site-saturation at positions 5, 18, 19, 20
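Further: peptides expressed intracellularly from a pBAD plasmid library in pooled LB shake-flask culture, induced with 0.3% L-arabinose, DNA abundance read by NGS, three biological replicates, DESeq2 with apeglm shrinkage.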

| Sequence | shrunken log2 fold change |
| --- | --- |
| RRIRFRPPRLPRPRPRPHEHPRP | -0.135 |
| RRIRTRPPRLPRPRPRPCQCPRP | -0.195 |
| RRIRERPPRLPRPRPRPPQPPRP | 0.307 |
| RRIRQRPPRLPRPRPRPMFVPRP | 0.493 |
| RRIRPRPPRLPRPRPRPAITPRP | -0.361 |
| RRIRRRPPRLPRPRPRPCHSPRP | 0.00408 |
| RRIRYRPPRLPRPRPRPAIWPRP | 0.0587 |
| RRIRCRPPRLPRPRPRPKKYPRP | -0.485 |
| RRIRARPPRLPRPRPRPGYLPRP | 0.0801 |
| RRIRCRPPRLPRPRPRPADPPRP | -0.195 |
| RRIRRRPPRLPRPRPRPLADPRP | 0.311 |
| RRIRHRPPRLPRPRPRPNNDPRP | -0.727 |
| RRIRIRPPRLPRPRPRPDITPRP | -0.0982 |
| RRIRSRPPRLPRPRPRPKLHPRP | -0.0772 |
| RRIRGRPPRLPRPRPRPDWEPRP | 0.166 |
| RRIRDRPPRLPRPRPRPDAYPRP | 0.0301 |
| RRIRKRPPRLPRPRPRPYGCPRP | -0.00151 |
| RRIRVRPPRLPRPRPRPKQTPRP | -0.0483 |
| RRIRHRPPRLPRPRPRPVMAPRP | -0.27 |
| RRIRVRPPRLPRPRPRPCMHPRP | 1.2 |
| RRIRYRPPRLPRPRPRPVSDPRP | -0.379 |
| RRIRDRPPRLPRPRPRPPATPRP | 0.75 |
| RRIRSRPPRLPRPRPRPYEIPRP | -0.0474 |
| RRIRNRPPRLPRPRPRPDRTPRP | -0.161 |
| RRIRCRPPRLPRPRPRPKWNPRP | -0.373 |

| Sequence | shrunken log2 fold change |
| --- | --- |
| RRIRKRPPRLPRPRPRPQNEPRP | -0.0827 |
| RRIRPRPPRLPRPRPRPAMVPRP | 0.844 |
| RRIRGRPPRLPRPRPRPGETPRP | 0.515 |
| RRIRGRPPRLPRPRPRPPHGPRP | 0.903 |
| RRIRYRPPRLPRPRPRPPRQPRP | 0.0146 |
| RRIRERPPRLPRPRPRPGGKPRP | -0.0276 |
| RRIRHRPPRLPRPRPRPNSTPRP | -1.48 |
| RRIRERPPRLPRPRPRPSEDPRP | -0.0724 |
| RRIRNRPPRLPRPRPRPIFHPRP | -0.358 |
| RRIRIRPPRLPRPRPRPMSYPRP | 0.0721 |
| RRIRLRPPRLPRPRPRPQVMPRP | -0.0202 |
| RRIRCRPPRLPRPRPRPFDEPRP | -0.0888 |
| RRIRYRPPRLPRPRPRPAKCPRP | -0.153 |
| RRIRGRPPRLPRPRPRPLYQPRP | 0.0508 |
| RRIRIRPPRLPRPRPRPQVAPRP | -0.333 |
| RRIRPRPPRLPRPRPRPVMEPRP | -0.101 |
| RRIRIRPPRLPRPRPRPNRRPRP | 0.041 |
| RRIRPRPPRLPRPRPRPAPRPRP | 0.992 |
| RRIRFRPPRLPRPRPRPMWWPRP | 0.0551 |
| RRIRCRPPRLPRPRPRPKEWPRP | 0.0878 |
| RRIRPRPPRLPRPRPRPCQDPRP | -0.006 |
| RRIRVRPPRLPRPRPRPVWRPRP | 0.309 |
| RRIRQRPPRLPRPRPRPQFQPRP | -0.265 |
| RRIRVRPPRLPRPRPRPNFVPRP | -0.491 |
| RRIRIRPPRLPRPRPRPNSKPRP | -0.899 |

| Sequence | shrunken log2 fold change |
| --- | --- |
| RRIRQRPPRLPRPRPRPWRYPRP | 0.0785 |
| RRIRWRPPRLPRPRPRPWFPPRP | -0.0213 |
| RRIRLRPPRLPRPRPRPCAYPRP | -0.189 |
| RRIRVRPPRLPRPRPRPRMCPRP | -0.35 |
| RRIRDRPPRLPRPRPRPKEPPRP | 0.00859 |
| RRIRIRPPRLPRPRPRPCAEPRP | -0.358 |
| RRIRARPPRLPRPRPRPPFQPRP | 0.415 |
| RRIRDRPPRLPRPRPRPWLQPRP | 0.133 |
| RRIRVRPPRLPRPRPRPAYWPRP | -0.000323 |
| RRIRPRPPRLPRPRPRPNTSPRP | -0.237 |
| RRIRLRPPRLPRPRPRPNTIPRP | -0.796 |
| RRIRTRPPRLPRPRPRPICWPRP | -0.13 |
| RRIRKRPPRLPRPRPRPEMLPRP | 2 |
| RRIRGRPPRLPRPRPRPHMCPRP | -0.01 |
| RRIRMRPPRLPRPRPRPKTRPRP | 0.994 |
| RRIRSRPPRLPRPRPRPDDIPRP | -0.00173 |
| RRIRRRPPRLPRPRPRPGNPPRP | 0.608 |
| RRIRCRPPRLPRPRPRPRHLPRP | -0.302 |
| RRIRDRPPRLPRPRPRPVFYPRP | -0.301 |
| RRIRGRPPRLPRPRPRPHQSPRP | 0.12 |
| RRIRMRPPRLPRPRPRPMYQPRP | -0.0563 |
| RRIRSRPPRLPRPRPRPQWVPRP | 0.0964 |
| RRIRFRPPRLPRPRPRPIHVPRP | -0.335 |
| RRIRKRPPRLPRPRPRPRLIPRP | 0.234 |
| RRIRDRPPRLPRPRPRPSWPPRP | 0.399 |
